± gives the standard deviation of the averaged measurements.
Experiments:
MCF7 = experiment: percentage of EdU-negative (G0-arrested) nuclei per well, 72 h; higher = more G0 arrest; details: reference: sequence is the full UniProt precursor, the tested protein was the secreted form or ectodomain
hTERT-HMEC = experiment: as above; details: reference: sequence is the full UniProt precursor, the tested protein was the secreted form or ectodomain
[1] = protein concentration 0.0225 µM
[2] = protein concentration 0.03125 µM
[3] = protein concentration 0.3125 µM
[4] = protein concentration 0.01375 µM
[5] = protein concentration 0.1375 µM
[6] = protein concentration 0.01975 µM
[7] = protein concentration 0.1975 µM
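Further: secreted proteins added to cultured cells, EdU pulse at the end, nuclei found by Hoechst imaging, EdU status from nuclear versus surrounding ring intensity ratio, PBS as neutral control.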

MRLPWELLVLQSFILCLADDSTLHGPIFIQEPSPVMFPLDSEEKKVKLNCEVKGNPKPHIRWKLNGTDVDTGMDFRYSVVEGSLLINNPNKTQDAGTYQCTATNSFGTIVSREAKLQFAYLDNFKTRTRSTVSVRRGQGMVLLCGPPPHSGELSYAWIFNEYPSYQDNRRFVSQETGNLYIAKVEKSDVGNYTCVVTNTVTNHKVLGPPTPLILRNDGVMGEYEPKIEVQFPETVPTAKGATVKLECFALGNPVPTIIWRRADGKPIARKARRHKSNGILEIPNFQQEDAGLYECVAENSRGKNVARGQLTFYAQPNWIQKINDIHVAMEENVFWECKANGRPKPTYKWLKNGEPLLTRDRIQIEQGTLNITIVNLSDAGMYQCLAENKHGVIFSNAELSVIAVGPDFSRTLLKRVTLVKVGGEVVIECKPKASPKPVYTWKKGRDILKENERITISEDGNLRIINVTKSDAGSYTCIATNHFGTASSTGNLVVKDPTRVMVPPSSMDVTVGESIVLPCQVTHDHSLDIVFTWSFNGHLIDFDRDGDHFERVGGQDSAGDLMIRNIQLKHAGKYVCMVQTSVDRLSAAADLIVRGPPGPPEAVTIDEITDTTAQLSWRPGPDNHSPITMYVIQARTPFSVGWQAVSTVPELIDGKTFTATVVGLNPWVEYEFRTVAANVIGIGEPSRPSEKRRTEEALPEVTPANVSGGGGSKSELVITWETVPEELQNGRGFGYVVAFRPYGKMIWMLTVLASADASRYVFRNESVHPFSPFEVKVGVFNNKGEGPFSPTTVVYSAEEEPTKPPASIFARSLSATDIEVFWASPLEKNRGRIQGYEVKYWRHEDKEENARKIRTVGNQTSTKITNLKGSVLYHLAVKAYNSAGTGPSSATVNVTTRKPPPSQPPGNIIWNSSDSKIILNWDQVKALDNESEVKGYKVLYRWNRQSSTSVIETNKTSVELSLPFDEDYIIEIKPFSDGGDGSSSEQIRIPKISNAYARGSGASTSNACTLSAISTIMISLTARSSL [Q8IWV2]
percentage of EdU-negative (MCF7; protein concentration 0.018 µM): 25.6 ± 0.8% | percentage of EdU-negative (MCF7; protein concentration 0.18 µM): 27 ± 1.7% | percentage of EdU-negative (hTERT-HMEC; protein concentration 0.018 µM): 5.06 ± 0.29% | percentage of EdU-negative (hTERT-HMEC; protein concentration 0.18 µM): 8.55 ± 0.98%

MAEGNTLISVDYEIFGKVQGVFFRKHTQAEGKKLGLVGWVQNTDRGTVQGQLQGPISKVRHMQEWLETRGSPKSHIDKANFNNEKVILKLDYSDFQIVK [G3V2U7]
percentage of EdU-negative (MCF7; [1]): 24.4 ± 1.6% | percentage of EdU-negative (MCF7; protein concentration 0.225 µM): 25.9 ± 3.2% | percentage of EdU-negative (hTERT-HMEC; [1]): 4.35 ± 0.4% | percentage of EdU-negative (hTERT-HMEC; protein concentration 0.225 µM): 5.31 ± 0.75%

MALSFSLLMAVLVLSYKSICSLGCDLPQTHSLGNRRALILLAQMGRISPFSCLKDRHDFGFPQEEFDGNQFQKAQAISVLHEMIQQTFNLFSTKDSSATWEQSLLEKFSTELNQQLNDLEACVIQEVGVEETPLMNVDSILAVKKYFQRITLYLTEKKYSPCAWEVVRAEIMRSFSLSKIFQERLRRKE
percentage of EdU-negative (MCF7; [2]): 46.7 ± 0.98% | percentage of EdU-negative (MCF7; [3]): 47.89 ± 0.27% | percentage of EdU-negative (hTERT-HMEC; [2]): 15.2 ± 2.2% | percentage of EdU-negative (hTERT-HMEC; [3]): 17.64 ± 0.089%

MASLRVERAGGPRLPRTRVGRPAALRLLLLLGAVLNPHEALAQPLPTTGTPGSEGGTVKNYETAVQFCWNHYKDQMDPIEKDWCDWAMISRPYSTLRDCLEHFAELFDLGFPNPLAERIIFETHQIHFANCSLVQPTFSDPPEDVLLAMIIAPICLIPFLITLVVWRSKDSEAQA
percentage of EdU-negative (MCF7; [1]): 26.4 ± 3.1% | percentage of EdU-negative (MCF7; protein concentration 0.225 µM): 23.7 ± 0.28% | percentage of EdU-negative (hTERT-HMEC; [1]): 4.96 ± 0.83% | percentage of EdU-negative (hTERT-HMEC; protein concentration 0.225 µM): 5.12 ± 0.077%

O60486
percentage of EdU-negative (MCF7; [4]): 23.37 ± 0.13% | percentage of EdU-negative (MCF7; [5]): 26.9 ± 3% | percentage of EdU-negative (hTERT-HMEC; [4]): 4.77 ± 0.19% | percentage of EdU-negative (hTERT-HMEC; [5]): 10.8 ± 1%

MWGLLLALAAFAPAVGPALGAPRNSVLGLAQPGTTKVPGSTPALHSSPAQPPAETANGTSEQHVRIRVIKKKKVIMKKRKKLTLTRPTPLVTAGPLVTPTPAGTLDPAEKQETGCPPLGLESLRVSDSRLEASSSQSFGLGPHRGRLNIQSGLEDGDLYDGAWCAEEQDADPWFQVDAGHPTRFSGVITQGRNSVWRYDWVTSYKVQFSNDSRTWWGSRNHSSGMDAVFPANSDPETPVLNLLPEPQVARFIRLLPQTWLQGGAPCLRAEILACPVSDPNDLFLEAPASGSSDPLDFQHHNYKAMRKLMKQVQEQCPNITRIYSIGKSYQGLKLYVMEMSDKPGEHELGEPEVRYVAGMHGNEALGRELLLLLMQFLCHEFLRGNPRVTRLLSEMRIHLLPSMNPDGYEIAYHRGSELVGWAEGRWNNQSIDLNHNFADLNTPLWEAQDDGKVPHIVPNHHLPLPTYYTLPNATVAPETRAVIKWMKRIPFVLSANLHGGELVVSYPFDMTRTPWAARELTPTPDDAVFRWLSTVYAGSNLAMQDTSRRPCHSQDFSVHGNIINGADWHTVPGSMNDFSYLHTNCFEVTVELSCDKFPHENELPQEWENNKDALLTYLEQVRMGIAGVVRDKDTELGIADAVIAVDGINHDVTTAWGGDYWRLLTPGDYMVTASAEGYHSVTRNCRVTFEEGPFPCNFVLTKTPKQRLRELLAAGAKVPPDLRRRLERLRGQKD [Q96SM3]
percentage of EdU-negative (MCF7; [6]): 26.1 ± 3.2% | percentage of EdU-negative (MCF7; [7]): 28.5 ± 1.1% | percentage of EdU-negative (hTERT-HMEC; [6]): 5.64 ± 1.2% | percentage of EdU-negative (hTERT-HMEC; [7]): 5.93 ± 0.071%

MTCKMSQLERNIETIINTFHQYSVKLGHPDTLNQGEFKELVRKDLQNFLKKENKNEKVIEHIMEDLDTNADKQLSFEEFIMLMARLTWASHEKMHEGDEGPGHHHKPGLGEGTP
percentage of EdU-negative (MCF7; [2]): 26 ± 1.1% | percentage of EdU-negative (MCF7; [3]): 24.6 ± 0.91% | percentage of EdU-negative (hTERT-HMEC; [2]): 5.56 ± 0.9% | percentage of EdU-negative (hTERT-HMEC; [3]): 5.25 ± 0.34%

MSFPCKFVASFLLIFNVSSKGAVSKEITNALETWGALGQDINLDIPSFQMSDDIDDIKWEKTSDKKKIAQFRKEKETFKEKDTYKLFKNGTLKIKHLKTDDQDIYKVSIYDTKGKNVLEKIFDLKIQERVSKPKISWTCINTTLTCEVMNGTDPELNLYQDGKHLKLSQRVITHKWTTSLSAKFKCTAGNKVSKESSVEPVSCPEKGLDIYLIIGICGGGSLLMVFVALLVFYITKRKKQRSRRNDEELETRAHRVATEERGRKPHQIPASTPQNPATSQHPPPPPGHRSQAPSHRPPPPGHRVQHQPQKRPPAPSGTQVHQQKGPPLPRPRVQPKPPHGAAENSLSPSSN
percentage of EdU-negative (MCF7; [1]): 24.6 ± 0.84% | percentage of EdU-negative (MCF7; protein concentration 0.225 µM): 26.8 ± 0.55% | percentage of EdU-negative (hTERT-HMEC; [1]): 5.27 ± 1.3% | percentage of EdU-negative (hTERT-HMEC; protein concentration 0.225 µM): 5.92 ± 0.1%

Reference: the supplement of paper PMC11316812
